Assay results reported in publication PMC3814001.
Each block holds one substance with its values, some of them ahead of it.

Assays:
[1] = target: PKA holoenzyme (PKA_(holo)) formed by wild-type RIIα and PKAc (mouse) (UniProt P12367); test: native gel or EMSA; SEC peak fraction on precast 3–8% Tris-Acetate native gels, 50 mM Tris pH 8.3, 50 mM Tricine, silver staining
[2] = target: AKAP18γ–GFP (human)
[3] = target: AKAP18γ (human γ isoform of AKAP18), strep-II and 6xHis tagged (human)
[4] = target: RIIα (type IIα regulatory subunit of PKA), wild type, RIIα-6xHis (mouse) (UniProt P12367); test: native gel or EMSA; SEC peak fraction on precast 3–8% Tris-Acetate native gels, 50 mM Tris pH 8.3, 50 mM Tricine, silver staining

Sequence of AKAP18γ–GFP (human) (Q9P0M2 whole entry, canonical isoform): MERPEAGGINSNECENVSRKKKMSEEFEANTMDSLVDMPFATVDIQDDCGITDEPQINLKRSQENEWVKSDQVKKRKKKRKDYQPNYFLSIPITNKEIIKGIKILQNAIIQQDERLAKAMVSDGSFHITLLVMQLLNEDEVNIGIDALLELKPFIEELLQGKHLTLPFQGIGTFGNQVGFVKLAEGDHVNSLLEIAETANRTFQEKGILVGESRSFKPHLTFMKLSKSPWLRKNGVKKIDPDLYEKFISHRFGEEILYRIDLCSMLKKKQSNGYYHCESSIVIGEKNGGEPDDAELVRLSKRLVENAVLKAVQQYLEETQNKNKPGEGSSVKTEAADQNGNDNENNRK

- stoichiometry N (AKAP18γ per RIIα dimer with two PKAc) [1]: 1
Substance: AKAP18γ (human γ isoform of AKAP18), strep-II and 6xHis tagged (natural protein)

- cAMP phosphodiesterase activity in anti-GFP immune complexes from HEK293 cells, fold over GFP controls or rolipram-treated samples [2]: 3.27 fold
- basal (cAMP-independent) 32P incorporation into PDE4D by PKA holoenzyme with against without AKAP18γ, autoradiography; the substrate here was purified MBP-PDE4D3 [3]: 1.87 fold
Substance: PDE4D (type 4 phosphodiesterase isoforms PDE4D3 / PDE4D5) (enzyme)

- stoichiometry N [4]: 2 subunits
Substance: RIIα (type IIα regulatory subunit of PKA), wild type, RIIα-6xHis (from UniProt P12367 1-401) (natural protein; other documents disagree on this pair)
